# B1: S2: Homemade recombinant pig-baboon chimeric urate oxidase (SEQ ID NO: 1), not PEG modified (protein)
# chain: TYKKNDEVEFVRTGYGKDMIKVLHIQRDGKYHSIKEVATTVQLTLSSKKDYLHGDNSDVIPTDTIKNTVNVLAKFKGIKSIETFAVTICEHFLSSFKHVIRAQVYVEEVPWKRFEKNGVKHVHAFIYTPTGTHFCEVEQIRNGPPVIHSGIKDLKVLKTTQSGFEGFIKDQFTTLPEVKDRCFATQVYCKWRYHQGRDVDFEATWDTVRSIVLQKFAGPYDKGEYSPSVQKTLYDIQVLTLGQVPEIEDMEISLPNIHYLNIDMSKMGLINKEEVLLPLDNPYGKITGTVKRKLSSRL
# B2: urate oxidase from Micrococcus: Homemade recombinant urate oxidase from wild-type Micrococcus (SEQ ID NO: 9), not PEG modified (protein)
# chain: MTNIILGKNQYGKAEVRLVKVTRNTCRHEIQDLNVTSQLRGDFEAAHTAGDNAHVVATDTQKNTVYAFARDGFATTEEFLLRLGKHFTEGFDWVTGGRWAAQQFFWDRINDHDHAFSRNKSEVRTAVLEISGSEQAIVAGIEGLTVLKSTGSEFHGFPRDKYTTLPETEDRILATDVSARWRYNTVEVDFDAVYADVRGLLLKAFAETHSLALQQTMYEMGRAVIETHPEIDEIKMSLPNKHHFLVDLSPFGQDNPNEVFYAADRPYGLIEATIQREGCRADHPIWSN
# B3: S1: Commercially available unmodified urate oxidase from Aspergillus flavus (SEQ ID NO: 8) (protein)
# chain: SAVKAARYGKDNVRVYKVHKDEKTGVQTVYEMTVCVLLEGEIETSYTKADNSVIVATDSIKNTIYITAKQNPVTPPELFGSILGTHFIEKYNHIHAAHVNIVCHRWTRMDIDGKPHPHSFIRDSEEKRNVQVDVVEGKGIDIKSSLSGLTVLKSTNSQFWGFLRDEYTTLKETWDRILSTDVDATWQWKNFSGLQEVRSHVPKFDATWATAREVTLKTFAEDNSASVQATMYKMAEQILARQQLIETVEYSLPNKHYFEIDLSWHKGLQNTGKNAEVFAPQSDPNGLIKCTVGRSSLKSKL
# What was measured:
# [1] = Description: As the amount of xanthine added increases, the pH of the solution needs to be further increased to dissolve xanthine. However, high pH conditions will cause protein denaturation. […] The stability change trend of PEGylated urate oxidase tetramer was detected by the detection method of high and low molecular proteins of PEGylated urate oxidase.
# The situation where the molar ratio of xanthine to PEGylated urate oxidase was higher than 26:1 was studied.
# [2] = Stability effect of xanthine on urate oxidase from Micrococcus at 2° C. to 8° C.: SEC; type: physicochemical; settings: for High molecular weight % / Low molecular weight % / Main peak area / Main peak ratio % / Total peak area: SEC
# Protocol: SEC, 7.8×300 mm chromatographic column or equivalent column was selected. 0.05 mol/L Na2HPO4—NaH2PO4, 0.3 mol/L NaCl, pH 7.0 was used as the mobile phase. The flow rate of HPLC was set to be 0.5 ml/min, and the detection wavelength to 280 nm. Isocratic elution was performed for 35 min, and the injection volume was 10 μl. From the SEC results of the stability test at 2° C. to 8° C. in Table 3, it can be seen that the total peak area of the group with small molecules added on day 15 is larger and the main peak ratio thereof is higher.
# [3] = Stability of S1 and S2 urate oxidase with/without xanthine at 37° C.: SEC detection of high and low molecular proteins; type: physicochemical; settings: for High molecular weight % / Low molecular weight % / Main peak %: storage 37° C. ± 2° C.
# Protocol: SEC, 7.8×300 mm chromatographic column or equivalent column was selected. 0.05 mol/L Na2HPO4—NaH2PO4, 0.3 mol/L NaCl, pH 7.0 was used as the mobile phase. The flow rate of HPLC was set to be 0.5 ml/min, and the detection wavelength to 280 nm. Isocratic elution was performed for 35 min, and the injection volume was 10 μl.
# (§1) In this example of the present disclosure, xanthine was added to the S1 and S2 samples at a molar ratio of 26 times (xanthine:urate oxidase). The samples were packaged and placed at 37° C. for stability evaluation at days 0, 1.5, 6, and 16. The evaluation indicators include the content of high and low molecular proteins and enzyme specific activity.
# [4] = Effect of xanthine on the activity of PEGylated urate oxidase (UV 293 nm); type: biochemical; settings: xanthine 0.075 to 1.2 μg/ml
# Protocol: The method used for determining the activity of urate oxidase and PEGylated urate oxidase was as follows. […] Therefore, the UV spectrophotometer detection wavelength was 293 nm. The buffer solution was used as a blank control, and the absorption zero point was calibrated. In the quartz cuvette, 2.95 ml of substrate reaction solution was added followed by 50 μl of the test solution, mixed immediately, and the light absorption value at 293 nm was measured. According to C=A/εL (A being the absorbance value of a specific concentration of uric acid at 293 nm, εbeing the molar extinction coefficient of uric acid, L being the light path of the cuvette, and C being the molar concentration of uric acid), the degradation concentration of uric acid and then the enzyme activity were calculated. Definition of the activity of urate oxidase and PEGylated urate oxidase: at the optimal reaction temperature of 37° C. and the optimal reaction pH of 9.5, the amount of enzyme required to convert […] uric acid into allantoin per minute being defined as one activity unit (U). […] The PEGylated urate oxidase solution was mixed with different amounts of xanthine at a molar ratio of 0.05 mg/ml PEGylated urate oxidase to xanthine of 1:0, 1:3, 1:11, and 1:44, and then the activity of urate oxidase and polyethylene glycol-modified urate oxidase was determined according to the above-mentioned detection method.
# [5] = Stability of S1 and S2 urate oxidase with/without xanthine at 37° C.: enzyme specific activity (uric acid absorbance at 293 nm); type: biochemical; settings: storage 37° C. ± 2° C.
# Protocol: (§2) The method used for determining the activity of urate oxidase and PEGylated urate oxidase was as follows. […] Therefore, the UV spectrophotometer detection wavelength was 293 nm. The buffer solution was used as a blank control, and the absorption zero point was calibrated. In the quartz cuvette, 2.95 ml of substrate reaction solution was added followed by 50 μl of the test solution, mixed immediately, and the light absorption value at 293 nm was measured. According to C=A/εL (A being the absorbance value of a specific concentration of uric acid at 293 nm, εbeing the molar extinction coefficient of uric acid, L being the light path of the cuvette, and C being the molar concentration of uric acid), the degradation concentration of uric acid and then the enzyme activity were calculated.
# (§3) Definition of the activity of urate oxidase and PEGylated urate oxidase: at the optimal reaction temperature of 37° C. and the optimal reaction pH of 9.5, the amount of enzyme required to convert […] uric acid into allantoin per minute being defined as one activity unit (U).
# as §1
# [6] = Stability effect of xanthine on urate oxidase from Micrococcus at 2° C. to 8° C.: enzyme activity; type: biochemical; settings: storage 2° C. to 8° C., 15 d
# Protocol: as §2, §3
# [7] = immediate detection after process preparation
Molecule,Enzyme specific activity U/mg ([5]; 0 d),Enzyme specific activity U/mg ([5]; 1.5 d),Enzyme specific activity U/mg ([5]; 6 d),Enzyme specific activity U/mg ([5]; 16 d),High molecular weight % ([3]; 0 d),Low molecular weight % ([3]; 0 d),Main peak % ([3]; 0 d),High molecular weight % ([3]; 1.5 d),Low molecular weight % ([3]; 1.5 d),Main peak % ([3]; 1.5 d),High molecular weight % ([3]; 6 d),Low molecular weight % ([3]; 6 d),Main peak % ([3]; 6 d),High molecular weight % ([3]; 16 d),Low molecular weight % ([3]; 16 d),Main peak % ([3]; 16 d),other results
O=c1[nH]c(=O)c2[nH]cnc2[nH]1 [xanthine],–,–,–,–,–,–,–,–,–,–,–,–,–,–,–,–,"solubility of xanthine [1]: good solubility; effect of xanthine on the stability of the enzyme derived from Micrococcus ([2]; 26 times xanthine, 2° C. to 8° C., day 15, text): improve the stability of the enzyme derived from Micrococcus to a certain extent; effect of xanthine on the product stability of commercially available products and PHC ([3]; 26 times molar ratio, 37° C.): significantly improve the product stability; effect of the addition of xanthine on the activity of PEGylated urate oxidase [4]: no effect"
B1,11.3 U/mg,5.2 U/mg,3.2 U/mg,1.2 U/mg,0.7%,0.3%,99%,54.5%,0.2%,45.3%,75.1%,0.5%,24.4%,85.1%,5%,9.9%,–
B2,–,–,–,–,–,–,–,–,–,–,–,–,–,–,–,–,"High molecular weight % [2, 7]: 40.01%; Low molecular weight % [2, 7]: 2.34%; Main peak area [2, 7]: 3,986; Main peak ratio % [2, 7]: 57.65%; Total peak area [2, 7]: 6914.90; High molecular weight % ([2]; storage 2° C. to 8° C., 15 d): 74.58%; Low molecular weight % ([2]; storage 2° C. to 8° C., 15 d): 9.11%; Main peak area ([2]; storage 2° C. to 8° C., 15 d): 814; Main peak ratio % ([2]; storage 2° C. to 8° C., 15 d): 16.31%; Total peak area ([2]; storage 2° C. to 8° C., 15 d): 4993.05; Enzyme activity U/mg [6]: 3.58 U/mg"
B3,15.3 U/mg,12.6 U/mg,8.5 U/mg,3 U/mg,0.3%,1%,98.8%,0.2%,5.6%,94.2%,7.3%,17.7%,75%,17.2%,51.7%,31%,–
